Data taken from the supplement of paper PMC7877785.
± gives the uncertainty stated by the source.

Test: self-splicing fitness, log relative to wild type (ln ratio); higher = more splicing; Tetrahymena group I intron in knt gene, E. coli kanamycin selection, DiMSum; sequences stand for … in CUCUCU…GGAGGGAAAAGUUAUCAGGCAUGCACCUGGUAGCUAGUCUUUAAACCAAUAGAUUGCAUCGGUUUAAAAGGCAAGACCGUCAAAUUGCGGGAAAGGGGUCAACAGCCGUUCAGUACCAAGUCUCAGGGGAAACUUUGAGAUGGCCUUGCAAAGGGUAUGGUAAUAAGCUGACGGACAUGGUCCUAACCACGCAGCCAAGUCCUAAGUCAACAGAUCUUCUGUUGAUAUGGAUGCAGUUCACAGACUAAAUGUCGGUCGGGGAAGAUGUAUUCUUCUCAUAAGAUAUAGUCGGACCUCUCCUUAAUGGGAGCUAGCGGAUGAAGUGAUGCAACACUGGAGCCGCUGGGAACUAAUUUGUAUGCGAAAGUAUAUUGAUUAGUUUUGGAGUACUCGUGGUCG
In short: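 Pooled colonies went to amplicon sequencing on an Illumina HiSeq 2500 after six replicate transformations. The plates were LB agar with 100 μg/mL carbenicillin, 50 μM IPTG and 0.2% rhamnose, with or without 25 μg/mL kanamycin, incubated overnight at 37°C or 30°C. The E. coli BL21(DE3) library had all eight P1ex-region intron nucleotides randomised, the intron placed in the knt kanamycin-resistance gene on pET-22b(+). DiMSum fitness is the error-weighted combination of replicate fold changes, kanamycin against none, normalised to wild type.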

Sequence	self-splicing fitness (ln) (30 °C)	self-splicing fitness (ln) (37 °C)
AGUAAGCAAUAUUACGCACA	-0.655 ± 0.082	-0.356 ± 0.091
CGGAAGCAAUAUUACGAUGU	-2.72 ± 0.19	-0.735 ± 0.14
GGCAAGCAAUAUUACGAGCU	-2.69 ± 0.18	-1.67 ± 0.23
CUUUAGCAAUAUUACGCACG	-1.41 ± 0.21	-0.277 ± 0.2
CGGCAGCAAUAUUACGAGCG	-0.946 ± 0.09	-0.441 ± 0.11
AUGGAGCAAUAUUACGUCUC	-1.83 ± 0.28	-1.89 ± 0.37
AAUUAGCAAUAUUACGUGAU	-1.87 ± 0.13	-1.56 ± 0.16
AGACAGCAAUAUUACGUAUG	-3.13 ± 0.15	-0.801 ± 0.12
AAAGAGCAAUAUUACGGGUU	-3.43 ± 0.16	-2.78 ± 0.21
UAUAAGCAAUAUUACGAAAG	-1.17 ± 0.13	-2.44 ± 0.21
ACGCAGCAAUAUUACGGCGG	-2.14 ± 0.074	-1.91 ± 0.14
AAACAGCAAUAUUACGCUCU	-0.653 ± 0.085	0.413 ± 0.086
GGCUAGCAAUAUUACGUGAC	-1.84 ± 0.14	-1.02 ± 0.16
CUACAGCAAUAUUACGCUUA	-3.44 ± 0.19	-2.65 ± 0.19
AUUUAGCAAUAUUACGUGCG	-1.82 ± 0.091	-0.316 ± 0.12
CGUAAGCAAUAUUACGAGGA	–	-1.75 ± 0.33
UGUUAGCAAUAUUACGGGCC	-1.76 ± 0.18	-1.6 ± 0.32
AAUCAGCAAUAUUACGAUGU	0.218 ± 0.053	0.543 ± 0.08
AUAGAGCAAUAUUACGUGCC	-3.44 ± 0.41	-1.69 ± 0.4
CAAGAGCAAUAUUACGUUUC	-3.38 ± 0.24	-2.01 ± 0.26
CAGGAGCAAUAUUACGUGUA	-4.13 ± 0.27	-2.83 ± 0.25
UCCUAGCAAUAUUACGUAUG	-4.13 ± 0.3	-2.62 ± 0.26
UCAGAGCAAUAUUACGUCAG	-2.84 ± 0.3	-2.41 ± 0.29
CGAAAGCAAUAUUACGAGUC	-2.98 ± 0.18	-2.22 ± 0.35
AAUAAGCAAUAUUACGACCU	0.104 ± 0.12	0.726 ± 0.16
ACGCAGCAAUAUUACGUUUC	-3.87 ± 0.2	-2.61 ± 0.25

Sequence	self-splicing fitness (ln) (30 °C)	self-splicing fitness (ln) (37 °C)
UGGAAGCAAUAUUACGCAUA	-1.68 ± 0.17	-0.329 ± 0.14
CGCUAGCAAUAUUACGUCAU	-3.97 ± 0.35	-1.25 ± 0.19
CUGUAGCAAUAUUACGUCCU	-3.57 ± 0.4	–
CGGCAGCAAUAUUACGUUUU	-3.75 ± 0.17	-2.09 ± 0.14
GAGAAGCAAUAUUACGCCAA	-0.505 ± 0.27	-2.17 ± 0.22
CGCUAGCAAUAUUACGAGAG	-3.41 ± 0.24	-2.81 ± 0.38
UGUAAGCAAUAUUACGAGGA	-2.17 ± 0.36	-2.61 ± 0.34
AUUCAGCAAUAUUACGCCUG	-1.95 ± 0.12	-0.706 ± 0.19
UGGGAGCAAUAUUACGCGUU	-2.33 ± 0.28	-2.02 ± 0.44
CUCAAGCAAUAUUACGGUUG	-3.38 ± 0.19	-2.56 ± 0.22
CUCUAGCAAUAUUACGGCCG	-2.41 ± 0.22	-2.2 ± 0.23
GUCGAGCAAUAUUACGCCCA	–	-0.376 ± 0.33
CCCGAGCAAUAUUACGUACU	-3.49 ± 0.24	-1.24 ± 0.14
CCAAAGCAAUAUUACGCUAA	-2.86 ± 0.23	-2.7 ± 0.3
CCGAAGCAAUAUUACGAGAU	-3.31 ± 0.17	-2.43 ± 0.21
UGCCAGCAAUAUUACGGCGC	-3.8 ± 0.27	-3.04 ± 0.23
UAGGAGCAAUAUUACGAUCU	-3.09 ± 0.4	–
UCAUAGCAAUAUUACGUGGG	-3.39 ± 0.16	-1.75 ± 0.098
GCGAAGCAAUAUUACGCGAC	-1.88 ± 0.17	-1.1 ± 0.19
AAGAAGCAAUAUUACGCAGG	-2.54 ± 0.14	-1.26 ± 0.14
UUAUAGCAAUAUUACGAGUA	-1.68 ± 0.38	-1.09 ± 0.33
UAGAAGCAAUAUUACGAAGG	-2.9 ± 0.17	-1.82 ± 0.39
GUAAAGCAAUAUUACGAACG	-0.437 ± 0.077	-0.132 ± 0.12
CCCCAGCAAUAUUACGCCGG	-4.29 ± 0.21	-1.88 ± 0.16
AGUCAGCAAUAUUACGGUUG	-2.76 ± 0.12	-2.8 ± 0.17
GGGCAGCAAUAUUACGGACU	-0.562 ± 0.07	-0.255 ± 0.091

Sequence	self-splicing fitness (ln) (30 °C)	self-splicing fitness (ln) (37 °C)
UCGUAGCAAUAUUACGCUCU	-3.62 ± 0.32	-0.606 ± 0.18
UUUGAGCAAUAUUACGGCGG	-1.04 ± 0.24	-1.57 ± 0.28
CCACAGCAAUAUUACGCCUA	-2.47 ± 0.28	-2.79 ± 0.34
GGUAAGCAAUAUUACGUCGU	-1 ± 0.11	-0.732 ± 0.12
CCCGAGCAAUAUUACGAGCA	-2.24 ± 0.27	-2.04 ± 0.25
UUGCAGCAAUAUUACGUGGU	-2.14 ± 0.16	-2.76 ± 0.28
CUUCAGCAAUAUUACGAACA	-0.812 ± 0.18	-1.3 ± 0.21
GCGGAGCAAUAUUACGUCAA	-2.42 ± 0.37	–
UCGGAGCAAUAUUACGGUAA	-3.18 ± 0.21	-1.68 ± 0.23
CUUCAGCAAUAUUACGUGUU	-3.34 ± 0.19	-2.72 ± 0.24
UUGAAGCAAUAUUACGUCGU	-1.04 ± 0.074	-0.397 ± 0.11
CCAGAGCAAUAUUACGAAGA	-3.48 ± 0.31	-2.84 ± 0.43
CCUCAGCAAUAUUACGUAUU	-4.06 ± 0.24	-2.61 ± 0.21
AAGUAGCAAUAUUACGGAGC	-3.21 ± 0.32	-1.35 ± 0.23
UGGAAGCAAUAUUACGAGUA	-1.94 ± 0.22	-1.13 ± 0.17
GCGGAGCAAUAUUACGAAUA	–	-3.02 ± 0.4
AUACAGCAAUAUUACGAGCU	-1.51 ± 0.1	-1.26 ± 0.11
UUACAGCAAUAUUACGUAGC	-3.65 ± 0.3	-2.92 ± 0.27
GUGUAGCAAUAUUACGUAGU	-2.99 ± 0.18	-1.37 ± 0.17
UUAGAGCAAUAUUACGAUUG	-1.95 ± 0.11	-0.556 ± 0.14
AAGCAGCAAUAUUACGCCGA	-1.64 ± 0.3	-1.61 ± 0.26
UGAUAGCAAUAUUACGAUAU	-2.94 ± 0.2	-2.12 ± 0.21
CGUAAGCAAUAUUACGACCC	-2.71 ± 0.38	-2.23 ± 0.23
AAAAAGCAAUAUUACGUGGG	-3.51 ± 0.13	-2.03 ± 0.13
AACCAGCAAUAUUACGCCUU	-0.506 ± 0.053	0.096 ± 0.07
